# Test results taken from patent publication US20080058263A1 (published 2008).
# Where a chain is given by its changes, count along the chain named.
# B1: 63-5 (ligand)
# chain: GQNHHEVVKFMDVYQRSYCHPREVCIDVGKEYPDEIEYIFKPPCVSVYRCGGCCNDEGLECVPTEESNITMQIMRIKPHQGQHIGEMSFANHTSCRCMSKLD
# B2: 71-1 (ligand)
# chain: GQNHHEVVKSIDNEWRKTQCMPREVCIDVGKEYPDEIEYIFKPSCVPLMRCGGCCNDEGLECVPTEESNITMQIMRIKPHQGQHIGEMSFLQHNKCECRPKKD
# B3: 71-3 (ligand)
# chain: B2 chain with D57S, E61Q
# B4: 62-3 (ligand)
# chain: GQNHHEVVKFMDVYQRSYCHPREVCIDVGKEFGVATNTFFKPPCVSVYRCGGCCNSEGLQCVPTEESNITMQIMRIKPHQGQHIGEMSFLQHNKCECRPKKD
# B5: 62-7 (ligand)
# chain: B4 chain with L90A, Q91N, N93T, K94S, E96R, R98M, P99S, K101L
# B6: 62-5 (ligand)
# chain: B1 chain with Y32F, P33G, D34V, E35A, I36T, E37N, Y38T, I39F
# B7: 31-2 (ligand)
# chain: GQNHHEVVKSIDNEWRKTQCMPIETLVDIFQEYPDEIEYIFKPSCVPLMRCGGCCNDEGLECVPTEESNITMQIMRIKPHQGQHIGEMSFANHTSCRCMSKLD
# B8: 71-5 (ligand)
# chain: B7 chain with I23R, T25V, L26C, V27I, I29V, F30G, Q31K
# B9: 61-2 (ligand)
# chain: GQNHHEVVKFMDVYQRSYCHPREVCIDVGKEYPDEIEYIFKPSCVPLMRCGGCCNDEGLECMNTSTSYLSKTLFEIKPHQGQHIGEMSFLQHNKCECRPKKD
# B10: 71-2 (ligand)
# chain: GQNHHEVVKSIDNEWRKTQCMPREVCIDVGKEYPDEIEYIFKPSCVPLMRCGGCCNDEGLECMNTSTSYLSKTLFEIKPHQGQHIGEMSFLQHNKCECRPKKD
# B11: 71-4 (ligand)
# chain: B10 chain with D57S, E61Q
# B12: 62-9 (ligand)
# chain: GQNHHEVVKFMDVYQRSYCHPREVCIDVGKEFGVATNTFFKPPCVSVYRCGGCCNDEGLECVPTEESNITMQIMRITVPLSQGPKPVTISFLQHNKCECRPKKD
# B13: 52-6 (ligand)
# chain: AHYNTEILKSIDNEWRKTQCMPIETLVDIFQEFGVATNTFFKPPCVSVYRCGGCCNDEGLECMNTSTSYLSKTLFEIKPHQGQHIGEMSFANHTSCRCMSKLD
# B14: 52-8 (ligand)
# chain: B13 chain with D57S, E61Q
# B15: 61-10 (ligand)
# chain: GQNHHEVVKFMDVYQRSYCHPREVCIDVGKEYPDEIEYIFKPSCVPLMRCGGCCNDEGLECMNTSTSYLSKTLFEITVPLSQGPKPVTISFLQHNKCECRPKKD
# B16: 61-16 (ligand)
# chain: B15 chain with D56S, E60Q, L92A, Q93N, N95T, K96S, E98R, R100M, P101S, K103L
# B17: 61-12 (ligand)
# chain: B15 chain with D56S, E60Q
# B18: 63-10 (ligand)
# chain: B15 chain with S43P, P46S, L47V, M48Y
# B19: 22-1 (ligand)
# chain: AHYNTEILKSIDNEWRKTQCMPREVCIDVGKEFGVATNTFFKPPCVSVYRCGGCCNDEGLECVPTEESNITMQIMRIKPHQGQHIGEMSFLQHNKCECRPKKDLVFEQKLISEEDLNSAVDHHHHHH
# B20: 53-9 (ligand)
# chain: AHYNTEILKSIDNEWRKTQCMPIETLVDIFQEYPDEIEYIFKPPCVSVYRCGGCCNDEGLECVPTEESNITMQIMRITVPLSQGPKPVTISFLQHNKCECRPKKD
# B21: 53-13 (ligand)
# chain: B20 chain with L93A, Q94N, N96T, K97S, E99R, R101M, P102S, K104L
# B22: 53-15 (ligand)
# chain: B20 chain with D57S, E61Q, L93A, Q94N, N96T, K97S, E99R, R101M, P102S, K104L
# B23: 53-11 (ligand)
# chain: B20 chain with D57S, E61Q
# B24: 62-4 (ligand)
# chain: GQNHHEVVKFMDVYQRSYCHPREVCIDVGKEFGVATNTFFKPPCVSVYRCGGCCNSEGLQCMNTSTSYLSKTLFEIKPHQGQHIGEMSFLQHNKCECRPKKD
# B25: 21-15 (ligand)
# chain: AHYNTEILKSIDNEWRKTQCMPREVCIDVGKEYPDEIEYIFKPSCVPLMRCGGCCNSEGLQCVPTEESNITMQIMRITVPLSQGPKPVTISFANHTSCRCMSKLD
# B26: 52-7 (ligand)
# chain: AHYNTEILKSIDNEWRKTQCMPIETLVDIFQEFGVATNTFFKPPCVSVYRCGGCCNSEGLQCVPTEESNITMQIMRIKPHQGQHIGEMSFANHTSCRCMSKLD
# B27: 53-5 (ligand)
# chain: B26 chain with F33Y, G34P, V35D, A36E, T37I, N38E, T39Y, F40I, S57D, Q61E
# Molecular target: T1, VEGFR-1-Fc (UniProt P17948 27-338)
# T1 construct: domain: first three Ig domains; expressed in Drosophila S2 cells, purified on Protein A sepharose; also called VEGFR-1-Fc fusion protein; not shown: Fc fragment from the Signal-pIgPlus vector
# Experiment: receptor-Fc IP
# Summary of the method: (§1)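 Binding of ligand from sample supernatant measured by pentahistidine-antibody immunoprecipitation. IP mix: PBS with 1.5% BSA, 0.06% Tween 20, 3 μg/ml heparin and 400 ng/ml fusion protein, added 1:2 to sample supernatant.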
# T1 sequence (P17948 27-338): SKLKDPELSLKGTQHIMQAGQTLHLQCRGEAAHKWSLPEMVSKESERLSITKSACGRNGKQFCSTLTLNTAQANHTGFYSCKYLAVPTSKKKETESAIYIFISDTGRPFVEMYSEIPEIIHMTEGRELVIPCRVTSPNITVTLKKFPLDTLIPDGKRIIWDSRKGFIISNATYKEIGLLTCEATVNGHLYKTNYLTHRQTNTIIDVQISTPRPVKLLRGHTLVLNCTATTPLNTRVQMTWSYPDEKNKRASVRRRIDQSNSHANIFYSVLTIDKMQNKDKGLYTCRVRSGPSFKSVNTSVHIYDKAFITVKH
row,Binder,binding result
1,B1,no binding
2,B2,no binding
3,B3,no binding
4,B4,no binding
5,B5,no binding
6,B6,no binding
7,B7,no binding
8,B8,no binding
9,B9,no binding
10,B10,no binding
11,B11,no binding
12,B12,no binding
13,B13,no binding
14,B14,no binding
15,B15,no binding
16,B16,no binding
17,B17,no binding
18,B18,no binding
19,B19,no binding
20,B20,no binding
21,B21,no binding
22,B22,no binding
23,B23,no binding
24,B24,no binding
25,B25,no binding
26,B26,no binding
27,B27,no binding

# Molecular target: T2, VEGFR-2-Fc (UniProt P35968 20-322)
# T2 construct: domain: first 3 Ig domains; conditioned supernatant of 293T cells; also called VEGFR-2-Fc fusion protein; not shown: Fc fragment of the pIg vector
# Experiment: receptor-Fc IP
# Summary of the method: as §1
# T2 sequence (P35968 20-322): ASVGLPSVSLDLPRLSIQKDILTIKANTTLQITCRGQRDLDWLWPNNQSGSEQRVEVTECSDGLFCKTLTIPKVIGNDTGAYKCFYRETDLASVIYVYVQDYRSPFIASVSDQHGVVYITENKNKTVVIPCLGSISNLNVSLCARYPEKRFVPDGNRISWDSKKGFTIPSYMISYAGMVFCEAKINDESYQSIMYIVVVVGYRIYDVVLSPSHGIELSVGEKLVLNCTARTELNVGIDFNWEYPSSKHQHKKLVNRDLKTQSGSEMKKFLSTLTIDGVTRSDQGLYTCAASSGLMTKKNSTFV
row,Binder,binding result
1,B1,no binding
2,B2,no binding
3,B3,no binding
4,B4,no binding
5,B5,no binding
6,B6,no binding
7,B7,no binding
8,B8,no binding
9,B9,no binding
10,B10,no binding
11,B11,no binding
12,B12,no binding
13,B13,no binding
14,B14,no binding
15,B15,no binding
16,B16,no binding
17,B17,no binding
18,B18,no binding
19,B19,no binding
20,B20,no binding
21,B21,no binding
22,B22,no binding
23,B23,no binding
24,B24,no binding
25,B25,no binding
26,B26,no binding
27,B27,no binding

# Molecular target: T3, VEGFR-3-Fc (UniProt P35916 25-328)
# T3 construct: domain: first three Ig domains; conditioned supernatant of 293T cells; also called VEGFR-3-Fc fusion protein; not shown: Fc fragment of the pIg vector
# T3 sequence (looked up): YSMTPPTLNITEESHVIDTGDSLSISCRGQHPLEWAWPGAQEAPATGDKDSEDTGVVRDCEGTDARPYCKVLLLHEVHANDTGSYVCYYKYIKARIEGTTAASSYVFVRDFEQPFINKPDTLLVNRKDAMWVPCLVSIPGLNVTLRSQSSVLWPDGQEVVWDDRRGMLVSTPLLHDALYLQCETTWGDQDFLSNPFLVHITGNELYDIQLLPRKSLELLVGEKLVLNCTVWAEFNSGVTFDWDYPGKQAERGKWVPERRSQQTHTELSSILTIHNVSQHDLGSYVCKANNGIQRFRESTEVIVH
# Experiment: receptor-Fc IP
# Summary of the method: as §1
row,Binder,binding result
1,B1,no binding
2,B2,no binding
3,B3,no binding
4,B4,no binding
5,B5,no binding
6,B6,no binding
7,B7,no binding
8,B8,no binding
9,B9,no binding
10,B10,no binding
11,B11,no binding
12,B12,no binding
13,B13,no binding
14,B14,no binding
15,B15,no binding
16,B16,no binding
17,B17,no binding
18,B18,no binding
19,B19,no binding
20,B20,no binding
21,B21,no binding
22,B22,no binding
23,B23,no binding
24,B24,no binding
25,B25,no binding
26,B26,no binding
27,B27,no binding
